Laboratory results reported in patent US20240270846A1 (published 2024).

B1: GLS3000 V27cD one-arm antibody (H chain CE115HA000) (antibody, human IgG1, kappa, L234A L235A, N297A, name in Kabat numbering)
heavy: QVQLVESGGGVVQPGRSLRLSCAASGFTFSNAWMHWVRQAPGKGLEWVAQIKAKSNNYATYYAESVKGRFTISRDDSKNSLYLQMNSLKTEDTAVYYCRYVHYGAYYGVDAWGQGTTVTVSSASTKGPSVFPLAPSSKSTSGGTAALGCLVKDYFPEPVTVSWNSGALTSGVHTFPAVLQSSGLYSLSSVVTVPSSSLGTQTYICNVNHKPSNTKVDKKVEPKSCDKTHTCPPCPAPEAAGGPSVFLFPPKPKDTLMISRTPEVTCVVVDVSHEDPEVKFNWYVDGVEVHNAKTKPREEQYASTYRVVSVLTVLHQDWLNGKEYKCKVSNKALPAPIEKTISKAKGQPREPQVYTLPPSRCELTKNQVSLSCAVKGFYPSDIAVEWESNGQPENNYKTTPPVLDSDGSFFLVSKLTVDKSRWQQGNVFSCSVMHEALHNHYTQKSLSLSPDYKDDDDK
chain: EPKSSDKTHTCPPCPAPELLGGPSVFLFPPKPKDTLMISRTPEVTCVVVDVSHEDPEVKFNWYVDGVEVHNAKTKPREEQYNSTYRVVSVLTVLHQDWLNGKEYKCKVSNKALPAPIEKTISKAKGQPREPQVCTLPPSRDELTKNQVSLWCLVKGFYPSDIAVEWESNGQPENNYKTTPPVLDSDGSFFLYSKLTVDKSRWQQGNVFSCSVMHEALHNRYTQKSLSLSP
light: DIVMTQSPLSLPVTPGEPASISCRSSQSLDHSNRNTYLHWYQQKPGQAPRLLIYKVSNRFSGVPDRFSGSGSGTDFTLKISRVEAEDVGVYYCGQGTQVPYTFGQGTKLEIKRTVAAPSVFIFPPSDEQLKSGTASVVCLLNNFYPREAKVQWKVDNALQSGNSQESVTEQDSKDSTYSLSSTLTLSKADYEKHKVYACEVTHQGLSSPVTKSFNRGEC
notes: one-arm antibody
B2: GLS3000 V27cL one-arm antibody (H chain CE115HA000) (antibody, human IgG1, kappa, L234A L235A, N297A, name in Kabat numbering)
heavy: QVQLVESGGGVVQPGRSLRLSCAASGFTFSNAWMHWVRQAPGKGLEWVAQIKAKSNNYATYYAESVKGRFTISRDDSKNSLYLQMNSLKTEDTAVYYCRYVHYGAYYGVDAWGQGTTVTVSSASTKGPSVFPLAPSSKSTSGGTAALGCLVKDYFPEPVTVSWNSGALTSGVHTFPAVLQSSGLYSLSSVVTVPSSSLGTQTYICNVNHKPSNTKVDKKVEPKSCDKTHTCPPCPAPEAAGGPSVFLFPPKPKDTLMISRTPEVTCVVVDVSHEDPEVKFNWYVDGVEVHNAKTKPREEQYASTYRVVSVLTVLHQDWLNGKEYKCKVSNKALPAPIEKTISKAKGQPREPQVYTLPPSRCELTKNQVSLSCAVKGFYPSDIAVEWESNGQPENNYKTTPPVLDSDGSFFLVSKLTVDKSRWQQGNVFSCSVMHEALHNHYTQKSLSLSPDYKDDDDK
chain: EPKSSDKTHTCPPCPAPELLGGPSVFLFPPKPKDTLMISRTPEVTCVVVDVSHEDPEVKFNWYVDGVEVHNAKTKPREEQYNSTYRVVSVLTVLHQDWLNGKEYKCKVSNKALPAPIEKTISKAKGQPREPQVCTLPPSRDELTKNQVSLWCLVKGFYPSDIAVEWESNGQPENNYKTTPPVLDSDGSFFLYSKLTVDKSRWQQGNVFSCSVMHEALHNRYTQKSLSLSP
light: DIVMTQSPLSLPVTPGEPASISCRSSQSLLHSNRNTYLHWYQQKPGQAPRLLIYKVSNRFSGVPDRFSGSGSGTDFTLKISRVEAEDVGVYYCGQGTQVPYTFGQGTKLEIKRTVAAPSVFIFPPSDEQLKSGTASVVCLLNNFYPREAKVQWKVDNALQSGNSQESVTEQDSKDSTYSLSSTLTLSKADYEKHKVYACEVTHQGLSSPVTKSFNRGEC
notes: one-arm antibody
B3: GLS3000 V27cI one-arm antibody (H chain CE115HA000) (antibody, human IgG1, kappa, L234A L235A, N297A, name in Kabat numbering)
heavy: QVQLVESGGGVVQPGRSLRLSCAASGFTFSNAWMHWVRQAPGKGLEWVAQIKAKSNNYATYYAESVKGRFTISRDDSKNSLYLQMNSLKTEDTAVYYCRYVHYGAYYGVDAWGQGTTVTVSSASTKGPSVFPLAPSSKSTSGGTAALGCLVKDYFPEPVTVSWNSGALTSGVHTFPAVLQSSGLYSLSSVVTVPSSSLGTQTYICNVNHKPSNTKVDKKVEPKSCDKTHTCPPCPAPEAAGGPSVFLFPPKPKDTLMISRTPEVTCVVVDVSHEDPEVKFNWYVDGVEVHNAKTKPREEQYASTYRVVSVLTVLHQDWLNGKEYKCKVSNKALPAPIEKTISKAKGQPREPQVYTLPPSRCELTKNQVSLSCAVKGFYPSDIAVEWESNGQPENNYKTTPPVLDSDGSFFLVSKLTVDKSRWQQGNVFSCSVMHEALHNHYTQKSLSLSPDYKDDDDK
chain: EPKSSDKTHTCPPCPAPELLGGPSVFLFPPKPKDTLMISRTPEVTCVVVDVSHEDPEVKFNWYVDGVEVHNAKTKPREEQYNSTYRVVSVLTVLHQDWLNGKEYKCKVSNKALPAPIEKTISKAKGQPREPQVCTLPPSRDELTKNQVSLWCLVKGFYPSDIAVEWESNGQPENNYKTTPPVLDSDGSFFLYSKLTVDKSRWQQGNVFSCSVMHEALHNRYTQKSLSLSP
light: DIVMTQSPLSLPVTPGEPASISCRSSQSLIHSNRNTYLHWYQQKPGQAPRLLIYKVSNRFSGVPDRFSGSGSGTDFTLKISRVEAEDVGVYYCGQGTQVPYTFGQGTKLEIKRTVAAPSVFIFPPSDEQLKSGTASVVCLLNNFYPREAKVQWKVDNALQSGNSQESVTEQDSKDSTYSLSSTLTLSKADYEKHKVYACEVTHQGLSSPVTKSFNRGEC
notes: one-arm antibody
B4: GLS3000 V27cS one-arm antibody (H chain CE115HA000) (antibody, human IgG1, kappa, L234A L235A, N297A, name in Kabat numbering)
heavy: QVQLVESGGGVVQPGRSLRLSCAASGFTFSNAWMHWVRQAPGKGLEWVAQIKAKSNNYATYYAESVKGRFTISRDDSKNSLYLQMNSLKTEDTAVYYCRYVHYGAYYGVDAWGQGTTVTVSSASTKGPSVFPLAPSSKSTSGGTAALGCLVKDYFPEPVTVSWNSGALTSGVHTFPAVLQSSGLYSLSSVVTVPSSSLGTQTYICNVNHKPSNTKVDKKVEPKSCDKTHTCPPCPAPEAAGGPSVFLFPPKPKDTLMISRTPEVTCVVVDVSHEDPEVKFNWYVDGVEVHNAKTKPREEQYASTYRVVSVLTVLHQDWLNGKEYKCKVSNKALPAPIEKTISKAKGQPREPQVYTLPPSRCELTKNQVSLSCAVKGFYPSDIAVEWESNGQPENNYKTTPPVLDSDGSFFLVSKLTVDKSRWQQGNVFSCSVMHEALHNHYTQKSLSLSPDYKDDDDK
chain: EPKSSDKTHTCPPCPAPELLGGPSVFLFPPKPKDTLMISRTPEVTCVVVDVSHEDPEVKFNWYVDGVEVHNAKTKPREEQYNSTYRVVSVLTVLHQDWLNGKEYKCKVSNKALPAPIEKTISKAKGQPREPQVCTLPPSRDELTKNQVSLWCLVKGFYPSDIAVEWESNGQPENNYKTTPPVLDSDGSFFLYSKLTVDKSRWQQGNVFSCSVMHEALHNRYTQKSLSLSP
light: DIVMTQSPLSLPVTPGEPASISCRSSQSLSHSNRNTYLHWYQQKPGQAPRLLIYKVSNRFSGVPDRFSGSGSGTDFTLKISRVEAEDVGVYYCGQGTQVPYTFGQGTKLEIKRTVAAPSVFIFPPSDEQLKSGTASVVCLLNNFYPREAKVQWKVDNALQSGNSQESVTEQDSKDSTYSLSSTLTLSKADYEKHKVYACEVTHQGLSSPVTKSFNRGEC
notes: one-arm antibody
B5: GLS3000 V27cE one-arm antibody (H chain CE115HA000) (antibody, human IgG1, kappa, L234A L235A, N297A, name in Kabat numbering)
heavy: QVQLVESGGGVVQPGRSLRLSCAASGFTFSNAWMHWVRQAPGKGLEWVAQIKAKSNNYATYYAESVKGRFTISRDDSKNSLYLQMNSLKTEDTAVYYCRYVHYGAYYGVDAWGQGTTVTVSSASTKGPSVFPLAPSSKSTSGGTAALGCLVKDYFPEPVTVSWNSGALTSGVHTFPAVLQSSGLYSLSSVVTVPSSSLGTQTYICNVNHKPSNTKVDKKVEPKSCDKTHTCPPCPAPEAAGGPSVFLFPPKPKDTLMISRTPEVTCVVVDVSHEDPEVKFNWYVDGVEVHNAKTKPREEQYASTYRVVSVLTVLHQDWLNGKEYKCKVSNKALPAPIEKTISKAKGQPREPQVYTLPPSRCELTKNQVSLSCAVKGFYPSDIAVEWESNGQPENNYKTTPPVLDSDGSFFLVSKLTVDKSRWQQGNVFSCSVMHEALHNHYTQKSLSLSPDYKDDDDK
chain: EPKSSDKTHTCPPCPAPELLGGPSVFLFPPKPKDTLMISRTPEVTCVVVDVSHEDPEVKFNWYVDGVEVHNAKTKPREEQYNSTYRVVSVLTVLHQDWLNGKEYKCKVSNKALPAPIEKTISKAKGQPREPQVCTLPPSRDELTKNQVSLWCLVKGFYPSDIAVEWESNGQPENNYKTTPPVLDSDGSFFLYSKLTVDKSRWQQGNVFSCSVMHEALHNRYTQKSLSLSP
light: DIVMTQSPLSLPVTPGEPASISCRSSQSLEHSNRNTYLHWYQQKPGQAPRLLIYKVSNRFSGVPDRFSGSGSGTDFTLKISRVEAEDVGVYYCGQGTQVPYTFGQGTKLEIKRTVAAPSVFIFPPSDEQLKSGTASVVCLLNNFYPREAKVQWKVDNALQSGNSQESVTEQDSKDSTYSLSSTLTLSKADYEKHKVYACEVTHQGLSSPVTKSFNRGEC
notes: one-arm antibody
B6: GLS3000 V27cP one-arm antibody (H chain CE115HA000) (antibody, human IgG1, kappa, L234A L235A, N297A, name in Kabat numbering)
heavy: QVQLVESGGGVVQPGRSLRLSCAASGFTFSNAWMHWVRQAPGKGLEWVAQIKAKSNNYATYYAESVKGRFTISRDDSKNSLYLQMNSLKTEDTAVYYCRYVHYGAYYGVDAWGQGTTVTVSSASTKGPSVFPLAPSSKSTSGGTAALGCLVKDYFPEPVTVSWNSGALTSGVHTFPAVLQSSGLYSLSSVVTVPSSSLGTQTYICNVNHKPSNTKVDKKVEPKSCDKTHTCPPCPAPEAAGGPSVFLFPPKPKDTLMISRTPEVTCVVVDVSHEDPEVKFNWYVDGVEVHNAKTKPREEQYASTYRVVSVLTVLHQDWLNGKEYKCKVSNKALPAPIEKTISKAKGQPREPQVYTLPPSRCELTKNQVSLSCAVKGFYPSDIAVEWESNGQPENNYKTTPPVLDSDGSFFLVSKLTVDKSRWQQGNVFSCSVMHEALHNHYTQKSLSLSPDYKDDDDK
chain: EPKSSDKTHTCPPCPAPELLGGPSVFLFPPKPKDTLMISRTPEVTCVVVDVSHEDPEVKFNWYVDGVEVHNAKTKPREEQYNSTYRVVSVLTVLHQDWLNGKEYKCKVSNKALPAPIEKTISKAKGQPREPQVCTLPPSRDELTKNQVSLWCLVKGFYPSDIAVEWESNGQPENNYKTTPPVLDSDGSFFLYSKLTVDKSRWQQGNVFSCSVMHEALHNRYTQKSLSLSP
light: DIVMTQSPLSLPVTPGEPASISCRSSQSLPHSNRNTYLHWYQQKPGQAPRLLIYKVSNRFSGVPDRFSGSGSGTDFTLKISRVEAEDVGVYYCGQGTQVPYTFGQGTKLEIKRTVAAPSVFIFPPSDEQLKSGTASVVCLLNNFYPREAKVQWKVDNALQSGNSQESVTEQDSKDSTYSLSSTLTLSKADYEKHKVYACEVTHQGLSSPVTKSFNRGEC
notes: one-arm antibody

molecular target: T1, CD3 epsilon homodimer protein (UniProt P07766 23-126); experiment: SPR, CD3e homodimer on chip;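 also: surface plasmon resonance at 25 degrees C, antibodies flowed as analyte over CD3 epsilon homodimer amine-coupled to a CM4 chip, running buffer HBS-EP+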
T1 construct: also called CD3 (CD3 epsilon)
T1 sequence (P07766 23-126): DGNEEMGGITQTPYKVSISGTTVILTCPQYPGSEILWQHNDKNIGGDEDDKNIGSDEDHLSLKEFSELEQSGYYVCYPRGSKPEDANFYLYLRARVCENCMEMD

Binder	ratio of amounts bound (altered form / unaltered GLS3000 antibody)
B1	0.32
B2	0.84
B3	0.96
B4	0.51
B5	0.61
B6	0.3
